Results: patent US20190083587A1 (Novo Nordisk, published 2019)

T1: hTLT-1 ECD-His (human, UniProt Q86YW5 16-162)
T1 construct: Extracellular domain of human TLT-1 with C-terminal His-6 tag; the range 16-168 is computed from these; also called TLT-1-His; His tagged human TLT1
T1 sequence: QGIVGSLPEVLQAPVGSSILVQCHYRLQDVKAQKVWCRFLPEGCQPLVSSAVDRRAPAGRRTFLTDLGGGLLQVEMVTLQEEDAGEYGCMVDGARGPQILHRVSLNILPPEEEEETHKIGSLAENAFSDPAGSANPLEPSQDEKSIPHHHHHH

T2: hTLT-1 ECD-HPC4 F54A (human, UniProt Q86YW5 16-162)
T2 construct: Built as m17; also called Ala mutant 12
T2 chain: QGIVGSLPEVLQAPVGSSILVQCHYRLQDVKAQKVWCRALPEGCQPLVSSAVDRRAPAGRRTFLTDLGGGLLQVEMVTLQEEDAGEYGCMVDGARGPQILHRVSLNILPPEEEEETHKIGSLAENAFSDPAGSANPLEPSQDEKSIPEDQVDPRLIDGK

T3: hTLT-1 ECD-HPC4 M91A (human, UniProt Q86YW5 16-162)
T3 construct: Built as m17; also called Ala mutant 24
T3 chain: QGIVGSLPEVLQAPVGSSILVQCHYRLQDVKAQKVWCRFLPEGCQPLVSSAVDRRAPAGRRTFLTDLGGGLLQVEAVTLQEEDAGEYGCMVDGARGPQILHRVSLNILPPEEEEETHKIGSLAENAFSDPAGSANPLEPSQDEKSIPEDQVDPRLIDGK

T4: hTLT-1 ECD-HPC4 R41A (human, UniProt Q86YW5 16-162)
T4 construct: Built as m17; also called Ala mutant 7
T4 chain: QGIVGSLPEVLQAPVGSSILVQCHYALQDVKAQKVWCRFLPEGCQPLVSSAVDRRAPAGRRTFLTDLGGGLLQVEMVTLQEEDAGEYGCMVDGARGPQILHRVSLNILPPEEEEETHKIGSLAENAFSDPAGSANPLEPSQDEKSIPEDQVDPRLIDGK

T5: hTLT-1 ECD-HPC4 L42A (human, UniProt Q86YW5 16-162)
T5 construct: Built as m17; also called Ala mutant 8
T5 chain: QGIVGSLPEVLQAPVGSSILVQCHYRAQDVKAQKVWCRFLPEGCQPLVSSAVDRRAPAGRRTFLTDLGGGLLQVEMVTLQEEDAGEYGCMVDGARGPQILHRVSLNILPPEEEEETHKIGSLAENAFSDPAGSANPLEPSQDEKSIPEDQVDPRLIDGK

T6: hTLT-1 ECD-HPC4 Q43A (human, UniProt Q86YW5 16-162)
T6 construct: Built as m17; also called Ala mutant 9
T6 chain: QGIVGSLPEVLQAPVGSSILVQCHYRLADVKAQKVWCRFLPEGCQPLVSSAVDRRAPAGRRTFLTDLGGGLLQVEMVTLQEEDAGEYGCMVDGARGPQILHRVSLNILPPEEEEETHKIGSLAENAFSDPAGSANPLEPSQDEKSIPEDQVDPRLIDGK

T7: hTLT-1 ECD-HPC4 R110A (human, UniProt Q86YW5 16-162)
T7 construct: Built as m17; also called Ala mutant 30
T7 chain: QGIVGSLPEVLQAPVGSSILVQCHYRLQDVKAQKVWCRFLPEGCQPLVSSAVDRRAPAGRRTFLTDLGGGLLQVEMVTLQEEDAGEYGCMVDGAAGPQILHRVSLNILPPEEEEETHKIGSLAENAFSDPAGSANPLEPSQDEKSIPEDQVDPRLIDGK

T8: hTLT-1 ECD-HPC4 H116A (human, UniProt Q86YW5 16-162)
T8 construct: Built as m17; also called Ala mutant 31
T8 chain: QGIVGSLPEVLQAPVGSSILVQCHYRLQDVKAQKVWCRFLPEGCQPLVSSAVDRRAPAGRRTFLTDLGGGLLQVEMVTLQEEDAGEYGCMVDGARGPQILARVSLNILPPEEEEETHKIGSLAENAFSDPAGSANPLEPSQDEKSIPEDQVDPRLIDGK

T9: hTLT-1 ECD-HPC4 K46A (human, UniProt Q86YW5 16-162)
T9 construct: Built as m17; also called Ala mutant 10
T9 chain: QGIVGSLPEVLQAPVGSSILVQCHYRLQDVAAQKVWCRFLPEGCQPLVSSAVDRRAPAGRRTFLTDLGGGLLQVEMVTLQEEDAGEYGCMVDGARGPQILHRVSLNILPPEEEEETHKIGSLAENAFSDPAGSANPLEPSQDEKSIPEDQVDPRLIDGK

T10: hTLT-1 ECD-HPC4 R117A (human, UniProt Q86YW5 16-162)
T10 construct: Built as m17; also called Ala mutant 32
T10 chain: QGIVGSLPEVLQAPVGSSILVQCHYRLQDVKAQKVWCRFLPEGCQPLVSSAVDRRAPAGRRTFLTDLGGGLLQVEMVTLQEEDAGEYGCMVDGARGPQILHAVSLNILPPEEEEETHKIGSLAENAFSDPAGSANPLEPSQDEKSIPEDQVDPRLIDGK

T11: hTLT-1 ECD-HPC4 S119A (human, UniProt Q86YW5 16-162)
T11 construct: Built as m17; also called Ala mutant 33
T11 chain: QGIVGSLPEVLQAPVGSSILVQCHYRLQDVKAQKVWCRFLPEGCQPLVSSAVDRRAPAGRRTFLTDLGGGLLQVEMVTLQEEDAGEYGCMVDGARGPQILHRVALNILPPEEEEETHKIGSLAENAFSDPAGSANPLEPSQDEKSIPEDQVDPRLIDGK


What was measured:
hTLT-1 ECD-His = molecular target: T1, hTLT-1 ECD-His; assay: SPR Biacore, mAb immobilised directly, TLT-1 as analyte
Description: Method: The mAbs of interest were either immobilized directly to a CM5 chip or by capture via a human Fc capture mAb immobilized to a CM5 chip, while TLT-1-His was immobilized by capture via an anti-His mAb CM5 chip for analysis of Fabs.
mAb direct capture: The TLT-1 mAbs were immobilised to a level of approx 500-1000 RU on a CM5 chip (50 μg/ml diluted in Na-acetate, pH 4.0) using the standard procedure recommended by the supplier. Two-fold dilutions of TLT-1 from 200 nM to 0.2 nM were tested for binding to the mAbs. Running and dilution buffer: 10 mM HEPES, 150 mM, 0.005% p20, pH 7.4. Regeneration was obtained by 10 mM Glycine, pH 1.7. mAb capture via human Fc mAb: Human Fc mAb was immobilised to approx 10.000 RU. The mAb of interest was added (approx 100 nM). Two-fold dilutions of TLT-1 from 200 nM to 0.2 nM were tested. Running and dilution buffer: 10 mM HEPES, 150 mM, 0.005% p20, pH 7.4. Regeneration was obtained in 3 M MgCl₂.

hTLT-1 ECD-HPC4 F54A = molecular target: T2, hTLT-1 ECD-HPC4 F54A; assay: SPR ProteOn, mAb captured by anti-hFc, 100 nM mutant, signal 10 s after injection
Description: (§1) Each antibody was diluted in 10 mM sodium acetate pH 5.0 to a concentration of 50 μg/ml, and was immobilized to an individual flow cell at 30 μl/min for 240 s. The antibodies were immobilized to flow cells A1-A6 (horizontal direction). After immobilization, the active sites on the flow cell were blocked with 1 M ethanolamine. The final immobilization level of capture antibody typically ranged from approximately 9,000 to 10,000 RU in one experiment. Capture of the anti-TLT-1 antibodies mAb0023, mAb0051, mAb0061 and mAb0062 was conducted by diluting to 0.5 μg/ml into HBS-EP buffer (10 mM HEPES, 150 mM NaCl, 3 mM EDTA, 0.05% surfactant P20, pH 7.4) and injected at 30 μl/min for 60 s in vertical direction, creating interspot reference points with only anti-human Fc antibodies.
(§2) The final capture level of test antibodies typically ranged from approximately 200 to 300 RU in one experiment. Binding of wt or Ala mutant hTLT-1 ECD-HPC4 protein was conducted by injecting over parallel flow cells in horizontal direction to allow for comparative analyses of binding to different captured anti-TLT-1 antibodies relative to binding to the interspot references. Each hTLT-1 ECD-HPC4 protein was diluted to 100 nM, based on the calculated average Mw, into HBS-EP buffer and injected at 30 μl/min for 240 s. The GLM chip was regenerated after each injection cycle of analyte via one 18 s injection of 1 M Formic acid followed by a 18s injection of 50 mM NaOH at 100 μl/min. This regeneration step removed the anti-TLT-1 antibody and any bound TLT-1 from the immobilized capture antibody surface, and allowed for the subsequent binding of the next test sample pair.
(§3) Data analysis was performed using the ProteOn Manager™ Software. No significant non-specific binding to the interspot control surfaces was observed. Binding curves were processed by double referencing (subtraction of interspot control surface signals as well as blank buffer injections over captured anti-TLT-1 antibodies). This allowed correction for instrument noise, bulk shift and drift during sample injections. Binding signal at 10 s after stop of analyte injection was normalized to level of captured anti-TLT-1 antibody and presented as binding relative to wt hTLT-1 ECD-HPC4 protein.

hTLT-1 ECD-HPC4 M91A = molecular target: T3, hTLT-1 ECD-HPC4 M91A; assay: as above
Description: as §1, §2, §3

hTLT-1 ECD-HPC4 R41A = molecular target: T4, hTLT-1 ECD-HPC4 R41A; assay: as above
Description: as §1, §2, §3

hTLT-1 ECD-HPC4 L42A = molecular target: T5, hTLT-1 ECD-HPC4 L42A; assay: as above
Description: as §1, §2, §3

hTLT-1 ECD-HPC4 Q43A = molecular target: T6, hTLT-1 ECD-HPC4 Q43A; assay: as above
Description: as §1, §2, §3

hTLT-1 ECD-HPC4 R110A = molecular target: T7, hTLT-1 ECD-HPC4 R110A; assay: as above
Description: as §1, §2, §3

hTLT-1 ECD-HPC4 H116A = molecular target: T8, hTLT-1 ECD-HPC4 H116A; assay: as above
Description: as §1, §2, §3

hTLT-1 ECD-HPC4 K46A = molecular target: T9, hTLT-1 ECD-HPC4 K46A; assay: as above
Description: as §1, §2, §3

hTLT-1 ECD-HPC4 R117A = molecular target: T10, hTLT-1 ECD-HPC4 R117A; assay: as above
Description: as §1, §2, §3

hTLT-1 ECD-HPC4 S119A = molecular target: T11, hTLT-1 ECD-HPC4 S119A; assay: as above
Description: as §1, §2, §3

| Kd (hTLT-1 ECD-His) | koff (hTLT-1 ECD-His) | kon (hTLT-1 ECD-His) | binding relative to wt hTLT-1 ECD-HPC4 (hTLT-1 ECD-HPC4 F54A) | binding relative to wt hTLT-1 ECD-HPC4 (hTLT-1 ECD-HPC4 M91A) | binding relative to wt hTLT-1 ECD-HPC4 (hTLT-1 ECD-HPC4 R41A) | binding relative to wt hTLT-1 ECD-HPC4 (hTLT-1 ECD-HPC4 L42A) | binding relative to wt hTLT-1 ECD-HPC4 (hTLT-1 ECD-HPC4 Q43A) | binding relative to wt hTLT-1 ECD-HPC4 (hTLT-1 ECD-HPC4 R110A) | binding relative to wt hTLT-1 ECD-HPC4 (hTLT-1 ECD-HPC4 H116A) | binding relative to wt hTLT-1 ECD-HPC4 (hTLT-1 ECD-HPC4 K46A) | binding relative to wt hTLT-1 ECD-HPC4 (hTLT-1 ECD-HPC4 R117A) | binding relative to wt hTLT-1 ECD-HPC4 (hTLT-1 ECD-HPC4 S119A) | Binder |
| --- | --- | --- | --- | --- | --- | --- | --- | --- | --- | --- | --- | --- | --- |
| 4.12 nM | 0.00134 s⁻¹ | 326000 M⁻¹ s⁻¹ | < 0.6 fraction of wt | < 0.4 fraction of wt | < 0.2 fraction of wt | < 0.6 fraction of wt | < 0.4 fraction of wt | < 0.2 fraction of wt | < 0.6 fraction of wt | – | – | – | mAb0062 (antibody, V domains shown, Mouse VH/VL, human IgG4 / kappa; variant of mAb0052 (HC C91Y, Kabat); The entries seem to include signal peptides; also called antiTLT-1 0062mab; (0052HC.C91Y)2) VH: QVQLQQSGAEPMKPGASVKISCKATGYTFSSHWIEWIKQRPGHGLEWIGEILPGSGNTNYNEKFKGKATFTADTSSNTAYMQLSSLTSEDSAVYYCARGYYGLNYDWYFDVWGAGTTVTVSS VL: DIQMTQTTSSLSASLGDRVTISCRASQDISNYLNWYQQKPDGTVKLLIFYTSRLHSGVPSRFSGSGSGTDYSLTISNLEPEDIATYYCQQDTKLPYTFGGGTKLEMKR |
| 4.36 nM | 0.00125 s⁻¹ | 287000 M⁻¹ s⁻¹ | – | < 0.4 fraction of wt | – | < 0.2 fraction of wt | < 0.2 fraction of wt | < 0.2 fraction of wt | – | < 0.2 fraction of wt | – | – | mAb0023 (antibody, V domains shown, Mouse VH/VL, human IgG4 / kappa; also called antiTLT-1 0023mab) VH: EVRLVESGGGLVQPGGSLKLSCATSGFTFSDYFMYWIRQTPEKRLEWVAYISNGGDSSSYPDTVKGRFTISRDNAKNTLYLQMSRLKSEDTAMYYCATNKNWDDYYDMDYWGQGTSVTVSS VL: DIVVSQSPSSLAVSAGEKVTMSCKSSQSLLNSRTRKNYLAWYQQKPGQSPKLLIYWASTRESGVPDRFTGSGSGTDFTLTISSVQAEDLAVYYCKQSYNLLTFGAGTKLELKR |
| 19.3 nM | 0.00472 s⁻¹ | 245000 M⁻¹ s⁻¹ | < 0.4 fraction of wt | < 0.2 fraction of wt | – | – | – | – | – | – | < 0.2 fraction of wt | < 0.6 fraction of wt | mAb0051 (antibody, V domains shown, Mouse VH/VL, human IgG4 / kappa; The entries seem to include signal peptides; also called antiTLT-1 0051mab) VH: QVQLEQSGAELVRPGVSVKISCKGSGYTFTDYSMHWVKQSHAKSLEWIGVISTYYGDVRYNQKFKGKATMTVDKSSSTAYMALARLTSEDSAIYYCARAPMITTGAWFAYWGQGTLVTVSA VL: SIVMTQTPKFLLVSAGDRVTITCKASQSVSNDVAWYQQKPGQSPKLLINYASSRYTGIPDRFTGSGYGTDFTFTISTVQAEDLAVYFCQQDYSSPYTFGGGTKLEIER |
